We go through eight molecules from patent US20230192860A1 (Bristol-Myers Squibb, published 2023).

Experiment [1] has as its target T1, hVISTA-ECD 6-His tag (human, UniProt Q9H7M9 33-193).
T1 construct: also called monovalent hVISTA-ECD; human VISTA
Kind of experiment: SPR 37 C, Ab on Protein A, pH 6.0.

The target of experiment [2] is T1, hVISTA-ECD 6-His tag. In words: SPR 37 C, Ab on Protein A, pH 7.4.
In experiment [3] the target is T1, hVISTA-ECD 6-His tag. In words: SPR, Ab on Protein A, hVISTA analyte, pH 6.9. In outline: (§1)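 Antibodies at 50 nM in PBST pH 7.4 were captured on a Protein A CM5 chip; an 8-point human VISTA titration (100 to 7.8 nM) in PBST at pH 7.4, 6.9, 6.45 or 6.0 was injected for 180 seconds at 30 µL/min. Kinetic constants came from 1:1 binding fits of sensorgrams.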
In experiment [4] the target is T1, hVISTA-ECD 6-His tag. Kind of experiment: SPR, Ab on Protein A, hVISTA analyte, pH 6.0. On the technique in general: SPR reads the build-up and loss of mass on a sensor chip optically.
Experiment [5] addresses T1, hVISTA-ECD 6-His tag. In words: SPR, Ab on Protein A, hVISTA analyte, pH 6.45.
Experiment [6] has as its target T1, hVISTA-ECD 6-His tag. In words: SPR; KD at pH 6.9 over KD at pH 6.0 (head prints 7.4). Here is the method:
(§2) Further binding kinetic experiments were performed at various pHs on VISTA antibodies described herein by SPR as generally described in Example 9 above. Antibodies were normalized to 50 nM concentration in PBST pH 7.4 and captured on a Protein A CM5 chip (ID 4931) by injecting for 45 seconds at a 5 µL/min flow rate. An 8-point human VISTA titration ([…]) was prepared in PBST at pH 7.4, 6.9, 6.45, and 6.0. Titrations were injected over the captured antibodies for 180 seconds at 30 µL/min. Sensorgrams were fit to a 1:1 binding model in T200 evaluation software and the kinetic constants were reported.
(§3) Each table reports the data at one of the four tested pHs (7.4, 6.9, 6.45, and 6.0, respectively). The 8-point hVISTA titration used in these assays was chosen to provide increased confidence in kinetic values reported at neutral pH conditions. A relatively stringent cutoff for non-binding was applied in this assay. Certain progeny of P1-061029 antibody (P1-068757, ‘759, ‘765, ‘771, and ‘775) show no binding to hVISTA at micromolar concentrations at pH 7.4, while ‘761 and ‘767 show no binding to hVISTA at 100 nM at pH 7.4 but do show binding to hVISTA at micromolar concentrations.

Experiment [7] addresses T1, hVISTA-ECD 6-His tag. Kind of experiment: SPR; kd at pH 6.9 over kd at pH 6.0 (head prints 7.4). Here is the method:
as §2, §3

Experiment [8] addresses T1, hVISTA-ECD 6-His tag. In words: SPR; KD at pH 6.45 over KD at pH 6.0 (head prints 7.4).
Experiment [9] addresses T1, hVISTA-ECD 6-His tag. Kind of experiment: SPR; kd at pH 6.45 over kd at pH 6.0 (head prints 7.4). In outline:
as §1

As a reminder, the Kd is the constant that tells how readily two partners part at equilibrium. The koff is the first-order rate constant of dissociation. Low readings indicate slow dissociation, high ones fast dissociation. For orientation: kon means the rate constant with which the complex forms. Lower therefore signals slow association.

T1 sequence (Q9H7M9 other isoform, or with tags, fused parts or gaps limits assumed): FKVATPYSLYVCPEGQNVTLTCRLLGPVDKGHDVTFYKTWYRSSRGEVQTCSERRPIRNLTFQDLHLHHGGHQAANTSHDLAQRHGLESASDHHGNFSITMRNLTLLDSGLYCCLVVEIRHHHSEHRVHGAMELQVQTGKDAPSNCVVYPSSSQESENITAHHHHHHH

B1: P1-061015 (antibody, human IgG1, kappa, V domains shown)
VH: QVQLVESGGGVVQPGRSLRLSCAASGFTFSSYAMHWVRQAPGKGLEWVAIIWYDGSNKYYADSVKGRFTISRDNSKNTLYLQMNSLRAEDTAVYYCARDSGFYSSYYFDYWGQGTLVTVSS
VL: EIVLTQSPATLSLSPGERATLSCRASQSVSSSYLAWYQQKPGQAPRLLIYDASNRATGIPARFSGSGSGTDFTLTISSLEPEDFATYYCQQYNSYPYTFGQGTKLEIKR
notes: also called P1-061015.IgG1.3
Consider B1, for which the Kd in experiment [1] is 1.9 nM; in experiment [2] it was 6.4 nM; in experiment [3], 3.19 nM; in experiment [4], 0.622 nM; in experiment [5], 1.83 nM. Further, the off-rate constant (koff) was 0.0016 s⁻¹ in experiment [1]; 0.0022 s⁻¹ in [2]; 0.00133 s⁻¹ in experiment [3]; 0.00154 s⁻¹ in experiment [4]; 0.00147 s⁻¹ in experiment [5]. The kon in experiment [1] turned out to be 830000 M⁻¹ s⁻¹; in experiment [2] it was 340000 M⁻¹ s⁻¹; in [3], 417000 M⁻¹ s⁻¹; in [4] it was 2.47e+06 M⁻¹ s⁻¹; in experiment [5], 803000 M⁻¹ s⁻¹. Also, the “7.4 KD/ 6.0 KD” value was found to be 5.1 in experiment [6] and 2.9 in experiment [8]. Further, the “7.4 kd/ 6.0 kd” value in [7] worked out at 0.9; in experiment [9], 1.

B2: P1-068744 (antibody, human IgG1, kappa, V domains shown)
VH: QVQLVESGGGVVQPGRSLRLSCAASGFTFSEYAMHWVRQAPGKGLEWVAHIWYDGSNKYEADSVKGRFTISRDNSKNTLYLQMNSLRAEDTAVYYCARDSGFYESYYFDEWGQGTLVTVSS
VL: EIVLTQSPATLSLSPGERATLSCRASQSVSSSYLAWYQQKPGQAPRLLIYDASNRATGIPARFSGSGSGTDFTLTISSLEPEDFATYYCQQYNSYPYTFGQGTKLEIKR
notes: also called P1-068744-7
In the case of B2, the Kd in experiment [1] was 20 nM; in [2], 1100 nM; in [3], 4800 nM; in [4] it was 5.1 nM; in [5], 64 nM. In addition, the koff amounted to 0.0046 s⁻¹ in experiment [1]; 0.036 s⁻¹ in experiment [2]; 0.034 s⁻¹ in experiment [3]; 0.0043 s⁻¹ in experiment [4]; 0.014 s⁻¹ in [5]. Moreover, the kon in experiment [1] turned out to be 230000 M⁻¹ s⁻¹; in [2] it was 35000 M⁻¹ s⁻¹; in experiment [3], 7100 M⁻¹ s⁻¹; in experiment [4], 860000 M⁻¹ s⁻¹; in experiment [5] it was 220000 M⁻¹ s⁻¹. In addition, the “7.4 KD/ 6.0 KD” value is 958 in experiment [6] and 12.6 in experiment [8]. Besides, the “7.4 kd/ 6.0 kd” value is 7.9 in [7] and 3.2 in experiment [9].

B3: P1-068748 (antibody, human IgG1, kappa, V domains shown)
VH: QVQLVESGGGVVQPGRSLRLSCAASGFTFSHHAMHWVRQAPGKGLEWVAIIWYDGSNDDYADSVKGRFTISRDNSKNTLYLQMNSLRAEDTAVYYCARDSGFYDSYYFDYWGQGTLVTVSS
VL: EIVLTQSPATLSLSPGERATLSCRASQSVSSSYLAWYQQKPGQAPRLLIYDASNRATGIPARFSGSGSGTDFTLTISSLEPEDFATYYCQQYNSYPYTFGQGTKLEIKR
notes: also called P1-068748-6
Regarding B3, the values for the Kd in experiment [3], in [4] and in experiment [5] were 220 nM, 4.3 nM and 18 nM, respectively. For the same molecule, the values for the koff in experiment [3], in experiment [4] and in [5] were 0.018 s⁻¹, 0.0036 s⁻¹ and 0.012 s⁻¹, respectively. The kon in experiment [3] came to 82000 M⁻¹ s⁻¹; in experiment [4], 840000 M⁻¹ s⁻¹; in experiment [5], 680000 M⁻¹ s⁻¹. In addition, the “7.4 KD/ 6.0 KD” value in experiment [6] is 50; in [8] it was 4.1. Moreover, the “7.4 kd/ 6.0 kd” value stood at 4.8 in experiment [7] and 3.4 in [9].

B4: P1-070914 (P1-068767_E30D_D52N) (antibody, human IgG1, kappa, V domains shown)
VH: EVQLVESGGGLVQPGKSLRLSCAASGFTLDDYAMHWVRQAPGKGLEWVSGINWNSENIGYADSVKGRFTISRDNAKNSLYLQMNSLRTEDTALYYCAKVPGYSGGWIDAEDDWGQGTMVTVSS
VL: not shown
notes: also called P1-070914-3
Regarding B4, the dissociation constant (Kd) is 230 nM in experiment [3], 11 nM in experiment [4] and 46 nM in experiment [5]. Moreover, the koff in experiment [3] is 0.011 s⁻¹; in experiment [4], 0.0024 s⁻¹; in [5], 0.0049 s⁻¹. For the same molecule, the kon worked out at 48000 M⁻¹ s⁻¹ in [3], 230000 M⁻¹ s⁻¹ in experiment [4] and 110000 M⁻¹ s⁻¹ in [5]. The “7.4 KD/ 6.0 KD” value in [6] stood at 21.1; in [8], 4.3. Besides, the “7.4 kd/ 6.0 kd” value worked out at 4.4 in [7] and 2 in [9].

B5: P1-070916 (P1-068767_D52N_E55A) (antibody, human IgG1, kappa, V domains shown)
VH: EVQLVESGGGLVQPGKSLRLSCAASGFTLEDYAMHWVRQAPGKGLEWVSGINWNSANIGYADSVKGRFTISRDNAKNSLYLQMNSLRTEDTALYYCAKVPGYSGGWIDAEDDWGQGTMVTVSS
VL: not shown
notes: also called P1-070916-6
With B5, the values for the Kd in experiment [3], in [4] and in experiment [5] were 230 nM, 6.5 nM and 35 nM, respectively. Also, the koff in experiment [3] was 0.0093 s⁻¹; in [4], 0.0019 s⁻¹; in experiment [5], 0.004 s⁻¹. The kon turned out to be 41000 M⁻¹ s⁻¹ in [3], 300000 M⁻¹ s⁻¹ in [4] and 120000 M⁻¹ s⁻¹ in experiment [5]. The “7.4 KD/ 6.0 KD” value worked out at 35.1 in experiment [6] and 5.4 in experiment [8]. The “7.4 kd/ 6.0 kd” value in experiment [7] amounted to 4.8; in experiment [9], 2.1.

B6: P1-070922 (P1-068767_E30D_E55A) (antibody, human IgG1, kappa, V domains shown)
VH: EVQLVESGGGLVQPGKSLRLSCAASGFTLDDYAMHWVRQAPGKGLEWVSGIDWNSANIGYADSVKGRFTISRDNAKNSLYLQMNSLRTEDTALYYCAKVPGYSGGWIDAEDDWGQGTMVTVSS
VL: not shown
notes: also called P1-070922-3
For the molecule B6, the Kd in experiment [3] worked out at 790 nM; in experiment [4] it was 17 nM; in experiment [5] it was 76 nM. Also, the koff was 0.014 s⁻¹ in experiment [3], 0.004 s⁻¹ in [4] and 0.007 s⁻¹ in experiment [5]. Also, the kon in [3] amounted to 18000 M⁻¹ s⁻¹; in [4] it was 230000 M⁻¹ s⁻¹; in [5], 93000 M⁻¹ s⁻¹. The “7.4 KD/ 6.0 KD” value in experiment [6] turned out to be 45.9; in experiment [8] it was 4.4. The results for the “7.4 kd/ 6.0 kd” value in experiment [7] and in experiment [9] were 3.4 and 1.7, respectively.

B7: P1-061520 (41F11 VK_A64G) (antibody, V domains shown)
VH: QVQLVESGGGLVKPGGSLRLSCAASGFTFSDYYMSWIRQAPGKGLEWVSYISNSGSPIYYADSVKGRFTISRDNAKNSLYLQMNSLRAEDTAVYYCARDLPGWYFDLWGRGTLVTVSS
VL: EIVLTQSPATLSLSPGERATLSCRASQSVSSYLAWYQQKPGQAPRLLIYDASNRATGIPARFSGSGSGTDFTLTISSLEPEDFAVYYCQQRNNWPRTFGQGTKVEIK
notes: also called P1-061520-21; VISTA.4.A64G
As to B7, the results for the Kd in experiment [3], in experiment [4] and in experiment [5] were 2.15 nM, 16.8 nM and 5.69 nM, respectively. For the same molecule, the koff worked out at 0.00139 s⁻¹ in experiment [3], 0.0323 s⁻¹ in experiment [4] and 0.00554 s⁻¹ in experiment [5]. For the same molecule, the kon in experiment [3] worked out at 646000 M⁻¹ s⁻¹; in [4], 1.93e+06 M⁻¹ s⁻¹; in experiment [5] it was 975000 M⁻¹ s⁻¹. Also, the “7.4 KD/ 6.0 KD” value was found to be 0.1 in experiment [6] and 0.3 in experiment [8]. The entries for the “7.4 kd/ 6.0 kd” value in [7] and in [9] were 0 and 0.2, respectively.

B8: P1-070976 (41F11_VH_T28P_Y50W_S55E_D95H_L96E_P97E_Y100E; Vk_A64G) (antibody, V domains shown)
VH: QVQLVESGGGLVKPGGSLRLSCAASGFPFSDYYMSWIRQAPGKGLEWVSWISNSGEPIYYADSVKGRFTISRDNAKNSLYLQMNSLRAEDTAVYYCARHEEGWEFDLWGRGTLVTVSS
VL: EIVLTQSPATLSLSPGERATLSCRASQSVSSYLAWYQQKPGQAPRLLIYDASNRATGIPARFSGSGSGTDFTLTISSLEPEDFAVYYCQQRNNWPRTFGQGTKVEIK
notes: They look like Kabat positions on the mature VH, but no numbering scheme is stated; also called P1-070976-11
For the molecule B8, the Kd turned out to be 970 nM in experiment [3], 9.9 nM in experiment [4] and 44 nM in [5]. In addition, the koff in experiment [3] was 0.01 s⁻¹; in experiment [4] it was 0.0023 s⁻¹; in experiment [5], 0.0039 s⁻¹. Further, the figures for the kon in [3], in experiment [4] and in [5] were 11000 M⁻¹ s⁻¹, 240000 M⁻¹ s⁻¹ and 90000 M⁻¹ s⁻¹, respectively. Further, the “7.4 KD/ 6.0 KD” value in [6] came to 98.2; in experiment [8], 4.4. Further, the “7.4 kd/ 6.0 kd” value came to 4.4 in experiment [7] and 1.7 in experiment [9].
